# Test results: patent US20240043551A1 (ADLAI NORTYE BIOPHARMA, published 2024)
# T1: Full length human TNFR2 on Jurkat E6-1 cells (Clone NO.3) (human, UniProt P20333 23-461)
# T1 construct: whole, on cells; also called human TNFR2+ Jurkat cells; hTNFR2 Jurkat
# T1 sequence (looked up): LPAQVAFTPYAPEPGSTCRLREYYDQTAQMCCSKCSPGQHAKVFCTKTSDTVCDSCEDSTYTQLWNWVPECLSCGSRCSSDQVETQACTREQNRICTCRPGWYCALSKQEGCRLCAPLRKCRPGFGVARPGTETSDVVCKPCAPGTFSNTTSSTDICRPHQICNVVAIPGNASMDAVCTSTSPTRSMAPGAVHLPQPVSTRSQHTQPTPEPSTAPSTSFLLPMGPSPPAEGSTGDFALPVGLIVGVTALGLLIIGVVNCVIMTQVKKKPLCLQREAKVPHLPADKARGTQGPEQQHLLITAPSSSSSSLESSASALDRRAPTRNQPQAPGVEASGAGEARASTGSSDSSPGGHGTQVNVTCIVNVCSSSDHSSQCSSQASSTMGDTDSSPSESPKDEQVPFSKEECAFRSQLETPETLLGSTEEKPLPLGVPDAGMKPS
# T2: rat TNFR2 (R&D systems, 8348-R2-050) (rat, UniProt Q80WY6 23-258)
# T2 construct: Bought protein
# T2 sequence (looked up): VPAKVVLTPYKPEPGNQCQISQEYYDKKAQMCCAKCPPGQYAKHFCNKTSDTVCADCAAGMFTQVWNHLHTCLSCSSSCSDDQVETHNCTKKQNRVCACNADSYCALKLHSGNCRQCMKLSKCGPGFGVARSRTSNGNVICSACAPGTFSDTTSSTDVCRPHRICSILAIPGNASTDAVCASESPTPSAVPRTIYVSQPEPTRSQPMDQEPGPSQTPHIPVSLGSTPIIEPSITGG
# T3: mouse TNFR2 (R&D systems, 426-R2-050/CF) (mouse, UniProt P25119 23-258)
# T3 construct: Bought protein
# T3 sequence (looked up): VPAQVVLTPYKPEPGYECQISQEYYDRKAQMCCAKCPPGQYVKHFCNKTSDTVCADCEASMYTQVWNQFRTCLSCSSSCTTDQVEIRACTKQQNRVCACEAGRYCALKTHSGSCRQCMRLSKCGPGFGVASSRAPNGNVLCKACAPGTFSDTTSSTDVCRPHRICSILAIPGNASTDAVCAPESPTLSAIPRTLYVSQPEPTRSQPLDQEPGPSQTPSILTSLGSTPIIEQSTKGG
# T4: Human TNFR1 (Acro Biosystem, TN1-H5222) (human, UniProt P19438 30-211)
# T4 construct: Bought protein; also called TNF receptor type 1; CD120a
# T4 sequence (looked up): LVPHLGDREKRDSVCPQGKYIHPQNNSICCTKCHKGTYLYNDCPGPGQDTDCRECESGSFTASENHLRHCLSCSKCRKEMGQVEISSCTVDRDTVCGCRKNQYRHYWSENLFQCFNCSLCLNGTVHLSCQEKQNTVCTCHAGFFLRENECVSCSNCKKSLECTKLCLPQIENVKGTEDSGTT
# T5: His tagged human TNFR2 ECD (Acro Biosystem, TN2-H5227) (human, UniProt P20333 23-257)
# T5 construct: extracellular domain; Bought protein; also called TNFR2-His; hTNFR2-His; not shown: His tag
# T5 sequence (looked up): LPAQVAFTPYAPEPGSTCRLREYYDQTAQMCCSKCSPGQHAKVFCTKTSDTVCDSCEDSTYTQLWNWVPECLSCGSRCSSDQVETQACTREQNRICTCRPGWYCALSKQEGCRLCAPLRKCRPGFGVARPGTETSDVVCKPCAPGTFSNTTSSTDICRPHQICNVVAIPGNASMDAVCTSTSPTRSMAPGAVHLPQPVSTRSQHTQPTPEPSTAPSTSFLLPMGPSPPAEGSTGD
# Tests used:
# [1] = biological target: T1, Full length human TNFR2 on Jurkat E6-1 …; assay: FACS on human TNFR2+ Jurkat Clone No.3, biotinylated antibody with streptavidin-PE
# Method: FACS analysis was used to evaluate the binding of purified anti-TNFR2 antibody candidates produced from example 6 to cell surface TNFR2 target. Anti-human TNFR2 antibodies and negative control IgG were biotinylated using a EZ-Link™ Micro Sulfo-NHS-Biotinylation Kit (Thermo Fisher Scientific, 21925) according to manufacturer's instructions. Biotinylated antibodies (100 μg/mL) were then incubated with Halt™ Protease Inhibitor Cocktail (100X, Thermo Scientific, 1862209) and 80 μg/mL Streptavidin-R-Phycoerythrin (PE) conjugate (Invitrogen, S21388). Antibodies were stored at 4° C. until use. 5×10⁵ Clone No.3 of human TNFR2⁺ Jurkat cells were distributed each well and blocked with human TruStain FcX™ (Biolegend, 422302) for 10 minutes at room temperature before stained with a serially diluted PE conjugated anti-human TNFR2 antibodies or hIgG1 starting from 50 μg/mL in a 5-fold dilution fashion for 30 minutes at 4° C. PE-anti hTNFR2 (Clone MR2-1, Thermo fisher #TNFR7504) was used as positive control. The geometric mean fluorescent intensity was measured on Sony SA3800 cell analyzer. Data were analyzed using Flowjo Software (Tree star Inc).
# [2] = biological target: T2, rat TNFR2 (R&D systems, 8348-R2-050); assay: ELISA, receptor coated at 1 µg/ml
# Method: Plates were incubated at 4° C. overnight. Antibodies was titrated from 100 μg/ml in a 5-fold dilution series, and distributed 100 μL, per well and incubated at 37° C. for 1 hour. Human IgG1 isotype control (BioxCell, BE0297) was used as negative control. TNFR2 Polyclonal Antibody (Invitrogen, PAS-80159) and HRP conjugated Goat anti-Rabbit IgG Fc Secondary Antibody (Invitrogen, A16116) were used as positive control for rat TNFR2 detection.
# [3] = biological target: T3, mouse TNFR2 (R&D systems, 426-R2-050/CF); assay: ELISA, receptor coated at 1 µg/mL
# Method: (§1) Human TNFR2 (Acro Biosystem, TN2-H5227), Human TNFR1 (Acro Biosystem, TN1-H5222), Cynomolgus TNFR2 (Sino Biological, 90102-CO8H) or mouse TNFR2 (R&D systems, 426-R2-050/CF) was coated on high binding polystyrene flat bottom micro-titer plates (Thermo Scientific, 3455) in PBS (PH=7.4, Gibco,10010-031) at 1 μg/mL and 100 μL per well. Plates were incubated at 4° C. overnight.
# (§2) Plates were warmed up to room temperature the next day and washed with 200 μL PBS containing 0.1% Tween 20 (Life technologies, 003005) per well for 3 times. Plates were blocked with 200 μL PBS buffer containing 1% BSA (Fisher Scientific, BP1600-100) per well for 1 hour at 37° C. Antibodies was titrated from 5 μg/mL in a 5-fold dilution series, distributed 100 μL per well and incubated at 37° C. for 1 hour. Human IgG1 isotype control (BioxCell, BE0297) was used as negative control. Plates were washed with 200 μL PBS containing 0.1% Tween 20 (Life technologies, 003005) per well for 3 times. Goat anti-Human IgG Fc Secondary Antibody-HRP conjugate (Invitrogen, A18817) were distributed at 0.5μg/mL and 100 μL per well to detect bound antibodies. After 1-hour incubation of secondary antibody at 37° C., plates were washed with 200 μL PBS containing 0.1% Tween 20 (Life technologies, 003005) per well for 3 times. Plates were developed using TMB Substrate Solution (eBioscience, 00-4201-56) and stopped with ELISA stop solution (Invitrogen, SSO4). The level of bound antibodies was determined by reading absorbance at 450 nm. Mouse anti-human TNFR1 antibody (ThermoFisher Scientific, MA1-81005) and goat anti mouse IgG secondary antibody-HRP conjugate (Invitrogen, 62-5520) were used as positive control for human TNFR1 detection. Armenian Hamster anti-mouse TNFR2 antibody (InVivoMab, BE0247) and HRP-Goat anti-Armenian Hamster IgG (H+L) Secondary Antibody (Invitrogen, PA1-32045) were used as positive control for mouse TNFR2 detection.
# [4] = biological target: T4, Human TNFR1 (Acro Biosystem, TN1-H5222); assay: ELISA, receptor coated at 1 µg/mL
# Method: as §1, §2
# [5] = biological target: T5, His tagged human TNFR2 ECD (Acro …); assay: ELISA, receptor coated at 1 µg/mL, antibody titrated from 5 µg/mL
# Method: as §1, §2
Binder,binding result [1],binding result [2],binding result [3],binding result [4],binding result [5]
"TN36-3 (antibody, human IgG1, V domains shown, Humanized; also called AL2/AL9) VH: EVQLVESGGGLIQPGGSLRLSCAASGFSLSSSAVSWVRQAPGKGLEWIGAIGSGGTSYYSNWAKSRFTISRDNSKNTLYLQMNSLRAEDTAVYYCARDPNSSDYPYGAYGMGLWGRGTLVTVSS VL: DIQMTQSPSSLSASVGDRVTITCQVSQSISSYLSWYQQKPGKPPKLLIYYASTLASGVPSRFSGSGSGTDFTLTISSLQPEDFATYYCQQGYITSNVGNAFGGGTKVEIK",binds,no binding (tested: titrated from 100 µg/ml),no binding (tested: titrated from 5 µg/mL),no binding (tested: titrated from 5 µg/mL),binds
"TN36-4 (antibody, human IgG1, V domains shown, Humanized; also called AL2/AL10) VH: EVQLVESGGGLIQPGGSLRLSCAASGFSLSSSAVSWVRQAPGKGLEWIGAIGSGGTSYYSNWAKSRFTISRDNSKNTLYLQMNSLRAEDTAVYYCARDPNSSDYPYGAYGMGLWGRGTLVTVSS VL: DIQMTQSPSFLSASVGDRVTITCQVSQSISSYLSWYQQKPGKAPKLLIYYASTLASGVPSRFSGSGSGTDFTLTISSLQPEDFATYYCQQGYITSNVGNAFGGGTKVEIK",binds,no binding (tested: titrated from 100 µg/ml),no binding (tested: titrated from 5 µg/mL),no binding (tested: titrated from 5 µg/mL),binds
"TN36-5 (antibody, human IgG1, V domains shown, Humanized; also called AL2/AL11) VH: EVQLVESGGGLIQPGGSLRLSCAASGFSLSSSAVSWVRQAPGKGLEWIGAIGSGGTSYYSNWAKSRFTISRDNSKNTLYLQMNSLRAEDTAVYYCARDPNSSDYPYGAYGMGLWGRGTLVTVSS VL: DIQLTQSPSFLSASVGDRVTITCQVSQSISSYLSWYQQKPGKAPKLLIYYASTLASGVPSRFSGSGSGTEFTLTISSLQPEDFATYYCQQGYITSNVGNAFGGGTKVEIK",binds,no binding (tested: titrated from 100 µg/ml),no binding (tested: titrated from 5 µg/mL),no binding (tested: titrated from 5 µg/mL),binds
"TN36-6 (antibody, human IgG1, V domains shown, Humanized; also called AL3/AL8) VH: EVQLVESGGGLIQPGGSLRLSCAASGFSLSSSAVSWVRQAPGKGLEWIGAIGSGGTSYYSNWAKSRFTISRDNSKNTLYLQMNSLRAEDTAVYFCARDPNSSDYPYGAYGMGLWGRGTLVTVSS VL: DIQMTQSPSSLSASVGDRVTITCQVSQSISSYLSWYQQKPGKAPKLLIYYASTLASGVPSRFSGSGSGTDFTLTISSLQPEDFATYYCQQGYITSNVGNAFGGGTKVEIK",binds,no binding (tested: titrated from 100 µg/ml),no binding (tested: titrated from 5 µg/mL),no binding (tested: titrated from 5 µg/mL),binds
"TN36-7 (antibody, human IgG1, V domains shown, Humanized; also called AL3/AL9) VH: EVQLVESGGGLIQPGGSLRLSCAASGFSLSSSAVSWVRQAPGKGLEWIGAIGSGGTSYYSNWAKSRFTISRDNSKNTLYLQMNSLRAEDTAVYFCARDPNSSDYPYGAYGMGLWGRGTLVTVSS VL: DIQMTQSPSSLSASVGDRVTITCQVSQSISSYLSWYQQKPGKPPKLLIYYASTLASGVPSRFSGSGSGTDFTLTISSLQPEDFATYYCQQGYITSNVGNAFGGGTKVEIK",binds,no binding (tested: titrated from 100 µg/ml),no binding (tested: titrated from 5 µg/mL),no binding (tested: titrated from 5 µg/mL),binds
"TN36-8 (antibody, human IgG1, V domains shown, Humanized; also called AL3/AL10) VH: EVQLVESGGGLIQPGGSLRLSCAASGFSLSSSAVSWVRQAPGKGLEWIGAIGSGGTSYYSNWAKSRFTISRDNSKNTLYLQMNSLRAEDTAVYFCARDPNSSDYPYGAYGMGLWGRGTLVTVSS VL: DIQMTQSPSFLSASVGDRVTITCQVSQSISSYLSWYQQKPGKAPKLLIYYASTLASGVPSRFSGSGSGTDFTLTISSLQPEDFATYYCQQGYITSNVGNAFGGGTKVEIK",binds,no binding (tested: titrated from 100 µg/ml),no binding (tested: titrated from 5 µg/mL),no binding (tested: titrated from 5 µg/mL),binds
"TN36-21 (antibody, human IgG1, V domains shown, Humanized; also called AL6/AL11) VH: EVQLVESGGGLVQPGGSLRLSCAASGFSLSSSAVSWVRQAPGKGLEWIGAIGSGGTSYYSNWAKSRFTISRDNSKNTLYLQMNSLRAEDTAVYYCARDPNSSDYPYGAYGMGLWGPGTLVTVSS VL: DIQLTQSPSFLSASVGDRVTITCQVSQSISSYLSWYQQKPGKAPKLLIYYASTLASGVPSRFSGSGSGTEFTLTISSLQPEDFATYYCQQGYITSNVGNAFGGGTKVEIK",,no binding (tested: titrated from 100 µg/ml),no binding (tested: titrated from 5 µg/mL),no binding (tested: titrated from 5 µg/mL),
